Measurements from publication PMC7949081.

Molecular target: Zn2+
Assay: Zincon assay
Settings: purified Vif complex denatured and deproteinated; metal ions measured in supernatant; parent: est. 1.3; read off a plot

Going from “maedi–visna virus (MVV) Vif, WT, residues 1-230, N-terminal 6xHis tagged (from UniProt P69715) C135S” to “maedi–visna virus (MVV) Vif, WT, residues 1-230, N-terminal 6xHis tagged (from UniProt P69715) C137S”, the other: Zn2+:Protein Ratio falls from 0.09 to 0.07.

Compared with “maedi–visna virus (MVV) Vif, WT, residues 1-230, N-terminal 6xHis tagged (from UniProt P69715) C157S”, “maedi–visna virus (MVV) Vif, WT, residues 1-230, N-terminal 6xHis tagged (from UniProt P69715) C160S” is lower in other: Zn2+:Protein Ratio: 0.2 for the first, 0.17 for the second.

Compared with “maedi–visna virus (MVV) Vif, WT, residues 1-230, N-terminal 6xHis tagged (from UniProt P69715) C207S”, “maedi–visna virus (MVV) Vif, WT, residues 1-230, N-terminal 6xHis tagged (from UniProt P69715) C222S” is lower in other: Zn2+:Protein Ratio: 0.93 for the first, 0.77 for the second.

First: maedi–visna virus (MVV) Vif, WT, residues 1-230, N-terminal 6xHis tagged (from UniProt P69715) H7N
Second: maedi–visna virus (MVV) Vif, WT, residues 1-230, N-terminal 6xHis tagged (from UniProt P69715) H129N
The other: Zn2+:Protein Ratio of the first is higher: 1.2 for the first, 0.92 for the second.

Going from “maedi–visna virus (MVV) Vif, WT, residues 1-230, N-terminal 6xHis tagged (from UniProt P69715) H152N” to “maedi–visna virus (MVV) Vif, WT, residues 1-230, N-terminal 6xHis tagged (from UniProt P69715) H181N”, the other: Zn2+:Protein Ratio rises from 0.97 to 1.2.

In the case of “maedi–visna virus (MVV) Vif, WT, residues 1-230, N-terminal 6xHis tagged (from UniProt P69715) H186N”, the other: Zn2+:Protein Ratio is reported as 1.1.
